Assay results from patent publication US20040138422A1 (published 2004).
*: point of attachment. Biotin = O=C1N[C@H]2[C@H](CS[C@H]2CCCCC(=O)*)N1

B1: biotinylated CCL22(K66) analogue (ligand)
chain: GPYGANMEDSVCCRDYVRYRLPLRVVKHFYWTSDSCPRPGVVLLTFRDKEICADPRVPWVKMILNK(Biotin)LSQ
notes: Synthetic human CCL22 with one biotin; also called biotinylated h-MDC

Assays:
[1] = molecular target: CCR4 on CCR4-transfected B300.19 mouse lymphoma cells (human) (UniProt P51679); experiment: cell-based or functional assay
[2] = molecular target: CCR4 on CCR4-transfected B300.19 mouse lymphoma cells (human) (UniProt P51679); experiment: FACS, CCR4-transfected B300.19 cells, biotinylated chemokine then FITC-avidin
[3] = molecular target: T1, FITC-conjugated avidin (BD Biosciences) (UniProt P02701 25-152, FITC conjugate); experiment: FACS; avidin binds the biotin of the receptor-bound chemokine
T1 construct: Detection reagent; also called FITC-avidin; FITC-labeled avidin
Excerpt: After 2 repetitive washings using staining buffer, cells were fixed in PBS with 1% FCS 1% and 1% PFA before FACS analysis.

Chain of CCR4 on CCR4-transfected B300.19 mouse lymphoma cells (human) (P51679 whole entry): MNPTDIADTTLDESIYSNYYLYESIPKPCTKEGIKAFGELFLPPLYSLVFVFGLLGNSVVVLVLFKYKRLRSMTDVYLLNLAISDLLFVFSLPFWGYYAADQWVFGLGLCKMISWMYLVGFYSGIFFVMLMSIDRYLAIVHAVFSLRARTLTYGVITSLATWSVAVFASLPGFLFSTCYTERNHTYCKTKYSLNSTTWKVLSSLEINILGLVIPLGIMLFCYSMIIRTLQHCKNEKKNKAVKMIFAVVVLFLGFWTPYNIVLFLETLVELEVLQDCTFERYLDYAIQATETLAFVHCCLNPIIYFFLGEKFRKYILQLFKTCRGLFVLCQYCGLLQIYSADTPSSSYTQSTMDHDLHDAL
T1 sequence (P02701 25-152 limits assumed): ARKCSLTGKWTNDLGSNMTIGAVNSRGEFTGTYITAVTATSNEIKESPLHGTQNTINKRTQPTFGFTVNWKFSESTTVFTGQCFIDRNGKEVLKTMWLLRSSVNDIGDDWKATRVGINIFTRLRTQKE

Molecule | dose at which minimal migration is still detectable [1] | dose for optimal migration of CCR4-transfected cells [1] | MFI [2] | binding result [3]
biotinylated CCL22(G1) analogue (from UniProt O00626 25-93) (ligand) | 0.1 ng/mL | 1 to 10 ng/mL | 5.9 | –
biotinylated CCL22(K49) analogue (from UniProt O00626 25-93) (ligand) | 0.1 ng/mL | 1 to 10 ng/mL | 6.1 | –
biotinylated CCL22(K61) analogue (from UniProt O00626 25-93) (ligand) | 0.1 ng/mL | 1 to 10 ng/mL | 6.6 | –
B1 | – | – | – | binds
